The target in one experiment is T1, Fibrinogen (Homo sapiens, UniProt P02671+P02675+P02679).
T1 sequence (P02671 20-629 limits assumed): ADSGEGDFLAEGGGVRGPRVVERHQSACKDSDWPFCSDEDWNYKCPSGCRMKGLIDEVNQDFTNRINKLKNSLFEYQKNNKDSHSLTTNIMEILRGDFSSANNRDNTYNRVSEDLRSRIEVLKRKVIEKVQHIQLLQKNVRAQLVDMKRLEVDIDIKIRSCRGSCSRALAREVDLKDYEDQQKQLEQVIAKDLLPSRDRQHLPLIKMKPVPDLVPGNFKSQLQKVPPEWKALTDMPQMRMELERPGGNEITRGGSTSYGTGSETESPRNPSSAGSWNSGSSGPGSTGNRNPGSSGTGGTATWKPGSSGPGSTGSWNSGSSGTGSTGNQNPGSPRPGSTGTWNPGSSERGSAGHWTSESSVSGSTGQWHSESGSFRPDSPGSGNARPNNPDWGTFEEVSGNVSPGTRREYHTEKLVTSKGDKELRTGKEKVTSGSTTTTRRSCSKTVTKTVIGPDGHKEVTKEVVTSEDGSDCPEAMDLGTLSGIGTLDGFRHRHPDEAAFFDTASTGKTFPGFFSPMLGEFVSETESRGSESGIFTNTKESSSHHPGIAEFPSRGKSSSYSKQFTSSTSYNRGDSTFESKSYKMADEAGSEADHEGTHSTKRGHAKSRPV
T1 sequence (P02675 31-491): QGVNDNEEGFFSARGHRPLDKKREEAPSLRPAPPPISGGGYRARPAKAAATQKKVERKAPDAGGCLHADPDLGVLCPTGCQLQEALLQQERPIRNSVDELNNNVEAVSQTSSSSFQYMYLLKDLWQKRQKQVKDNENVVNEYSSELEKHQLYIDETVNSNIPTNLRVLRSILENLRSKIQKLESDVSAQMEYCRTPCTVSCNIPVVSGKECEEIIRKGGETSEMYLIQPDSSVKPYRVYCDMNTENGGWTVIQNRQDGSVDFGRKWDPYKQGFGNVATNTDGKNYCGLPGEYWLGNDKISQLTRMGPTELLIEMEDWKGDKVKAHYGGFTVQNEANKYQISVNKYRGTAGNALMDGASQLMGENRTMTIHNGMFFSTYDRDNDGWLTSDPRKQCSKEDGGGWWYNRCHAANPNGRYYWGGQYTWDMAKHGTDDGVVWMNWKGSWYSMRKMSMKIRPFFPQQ
T1 sequence (P02679 27-453): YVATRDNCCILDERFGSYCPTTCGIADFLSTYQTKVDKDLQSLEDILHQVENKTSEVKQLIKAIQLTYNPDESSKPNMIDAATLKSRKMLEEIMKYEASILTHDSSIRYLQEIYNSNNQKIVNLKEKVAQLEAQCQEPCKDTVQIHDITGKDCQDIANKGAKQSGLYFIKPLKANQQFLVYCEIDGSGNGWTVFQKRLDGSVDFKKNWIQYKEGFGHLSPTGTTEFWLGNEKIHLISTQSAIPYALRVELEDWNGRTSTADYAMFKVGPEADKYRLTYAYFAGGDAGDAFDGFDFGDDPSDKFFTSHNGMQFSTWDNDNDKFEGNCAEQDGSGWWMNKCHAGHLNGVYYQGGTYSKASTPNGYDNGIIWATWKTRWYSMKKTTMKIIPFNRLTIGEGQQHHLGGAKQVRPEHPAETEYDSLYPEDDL
In words: Solid phase binding assay, fibrinogen binding to coated DC2, DC2-Fg, Efb. To be noted: read-out: apparent KD of fibrinogen binding. The method, then:
Solid phase binding assay-: Microtiter wells were coated with 1 μg of DC2, DC2-Fg, or Efb overnight at 4° C. to assess fibrinogen adhesion to DC proteins. Coated wells were blocked with 4 wt % BSA in PBS for 1 hour at room temperature. Fibrinogen was added to each protein-coated well in a serial dilution from 100 to 0 μg/well (0.3 to 0 μM). After 1 hour of incubation at room temperature, a sheep anti-fibrinogen antibody was applied to the wells (1:1000 dilution) for 1 hour at room temperature. An HRP-labelled secondary antibody to sheep was applied to the wells for 1 hour at room temperature, and […]™ OPD was utilized to detect bound fibrinogen via an absorbance reading at 450 nm on a THERMOMAX™ plate reader. Studies were performed in triplicate, and plates were washed three times between each step with 200 μl of PBS with 0.1 vol % TWEEN® 20.

Experiment [1] deals with C2C12-α1 and C2C12-α2 cells (human integrin α1 or α2 subunits). In words: C2C12 cell adhesion to coated DC proteins. Format: cell-based, mouse. The settings on record: 10 μg coated protein; 1 hour. The method, then: Integrin interactions with DC2-Fg—A11 cell culture supplies were purchased from Life Technologies and used as received unless otherwise noted. […] Mouse myoblast C2C12, C2C12-α1, and C2C12-α2 cells were cultured in Dulbecco's modified Eagle's medium (DMEM) with 10 vol % fetal bovine serum (FBS) and 1 vol % penicillin-streptomycin, 1 mg ml^−1 geneticin, or 10 μg ml^−1 puromycin, respectively. To assess C2C12 cell adhesion, 48 well tissue culture polystyrene (TCPS) plates were coated with 10 μg of DC1 (negative control—no integrin binding sites), DC2, DC2-Fg, or collagen type I (positive control) overnight at 4° C. Proteins were coated in triplicate for each cell type. Wells were blocked with 4 wt % bovine serum albumin (BSA) in PBS for 1 hour at room temperature and rinsed with sterile PBS. Cells were adapted to serum-free media (DMEM with 1 mM CaCl2, 1 mM MgCl2, and appropriate antibiotic) for 12 hours prior to trypsinization and seeding at 5,000 cells cm^−1. […] Lysates from samples and from known standards were transferred to a 96 well plate, and cell numbers were measured with the CYTOTOX 96® NON-RADIOACTIVE CYTOTOXICITY ASSAY. […] Then, 50 μl of stop solution was added to each well, and the absorbance was read at 490 nm. Cell numbers were quantified using standards of known cell numbers for each cell line.

Another experiment deals with T2, rCoa-C binding to Fg (Homo sapiens, UniProt P02671+P02675+P02679).
T2 construct: full-length human Fibrinogen (diluted in PBS, Enzyme research); purchased Enzyme research; host or cells: Coa probe made in E. coli BL21
T2 sequence (P02671 20-629 limits assumed): T1 sequence (P02671 20-629 limits assumed)
T2 sequence (P02675 31-491): T1 sequence (P02675 31-491)
T2 sequence (P02679 27-453): T1 sequence (P02679 27-453)
In words: Competition ELISA, peptide inhibition of rCoa-C (Coa 311-636) binding to Fg. The settings on record: increasing concentrations of peptides; 4 nM GST fusion protein. The method, then: The residues in Coa-RI important for fibrinogen binding. FIG. 12A is a panel of coa-RI variant peptides were synthesized where each residue in the sequence is individually replaced with Ala (or Ser when the native a.a. is Ala). […] Wells were coated with 0.25 μg/well Fg. Labels -1, -2, -3, -4, -5, -6, -7, -8, -9, -10, -11, -12, -13, -14, -15, -16, -17, -18, -19, -20, -21, -22, -23, -24, -25, -26, -27 refer to Coa-RI-1, Coa-RI-2, Coa-RI-3, Coa-RI-4, Coa-RI-5, Coa-RI-6, Coa-RI-7, Coa-RI-8, Coa-RI-9, Coa-RI-10, Coa-RI-11, Coa-RI-12, Coa-RI-13, Coa-RI-14, Coa-RI-15, Coa-RI-16, Coa-RI-17, Coa-RI-18, Coa-RI-19, Coa-RI-20, Coa-RI-21, Coa-RI-22, Coa-RI-23, Coa-RI-24, Coa-RI-25, Coa-RI-26, Coa-RI-27, respectively. FIG. 12C is a comparison of amino acid sequence of Efb-O with Coa-RI. FIG. 12D is a Fg-binding register of tandem repeats in Coa. Bold letters denote the residues that are important for Fg binding. Binding of a fixed concentration of rCoa-C (2 nM) to immobilized Fg was determined in the presence of a fixed concentration of these peptides (50 uM) (FIG. 12B). […]
FIG. 13A is a schematic presentation of Coa peptides. […] The Fg binding activities of these peptides were then investigated in a competition ELISA where the binding of rCoa-C to Fg coated microtiter wells were determined in the presence of increasing concentrations of peptide (FIG. 13B). […]
(In general: In an ELISA, binding on a coated surface is turned into a signal by an enzyme label.)

Three substances from patent US11407819B2, “Compositions and use of a fibrinogen binding motif present in EFB and COA for therapeutics and vaccines against Staphylococcus aureus” (priority 2013, dated 2022) can be followed below.

As to “DC2-Fg: DC2 with Fg binding motif Efb-O inserted after position 301 Gln (KYIKFKHDYNILEFNDGTFEYGARPQFNKPA; left off: things letters cannot carry; small tags and cut ends)”, in the experiment with Fibrinogen, the Kd is approximately 10 nM. Moreover, in experiment [1], the “C2C12-α1 and C2C12-α2 adhesion” value was “significantly increased C2C12-α1 and C2C12-α2 adhesion relative to DC2”.
For the substance “Efb-O: Fg binding motif Efb 68-98 (SEQ ID NO:1); coated comparator in b135 is Efb”, the Kd with Fibrinogen was approximately 1 nM.
With “sCoa-RI2: 27-residue overlapping Coa repeat I peptide (AYNVTTHANGQVSYGARPTYKKPSETN)”, the “inhibition of rCoa-C binding to fibrinogen by overlapping Coa R peptides” value in the experiment with rCoa-C binding to Fg is given as “some inhibitory activity”.
